Experimental data from article PMC11384143, “A pan-allelic human SIRPα-blocking antibody, ES004-B5, promotes tumor killing by enhancing macrophage phagocytosis and subsequently inducing an effective T-cell response” (Antibody Therapeutics, 2024).

What was measured:
[1] = molecular target: T1, cynomolgus SIRPα overexpressed on CHOK1/cSIRPα cells (Macaca fascicularis, UniProt A0A2K5VYQ9); experiment: flow cytometry on cells; serial dilutions of antibody on CHOK1 cells overexpressing SIRPα, 1 h at 4°C; Alexa Fluor 647 anti-human IgG Fcγ secondary antibody; MFI; conditions: one partner purified
T1 construct: signal regulatory protein alpha (SIRPα), cynomolgus monkey, overexpressed on CHO-K1 cells; also called cynomolgus SIRPα-expressing cells; source: CHOK1/cSIRPα cell line, bought: Chempartner

[2] = molecular target: T2, 6 × His tagged cynomolgus SIRPα ECD recombinant protein (Macaca fascicularis, UniProt A0A2K5VYQ9); experiment: SPR; Biacore T200, 25°C; antibody captured on anti-human IgG (Fc) CM5 chip (80 ± 12 RU); 6 × His tagged SIRP analyte 30–0.9375 nM in 1× HBS-EP+; 1:1 binding model; conditions: both partners purified
T2 construct: signal regulatory protein alpha (SIRPα), cynomolgus monkey, extracellular domain; also called cynomolgus monkey SIRPα; source: bought: KACTUS

[3] = molecular target: T3, 6 × His tagged huSIRPγ ECD recombinant protein (Homo sapiens (Human)., UniProt Q9P1W8); experiment: as above; conditions: both partners purified
T3 construct: signal regulatory protein gamma (SIRPγ, SIRP beta2), human, extracellular domain; also called signal regulatory protein gamma; SIRP beta2; source: bought: KACTUS
T3 sequence (Q9P1W8 29-360): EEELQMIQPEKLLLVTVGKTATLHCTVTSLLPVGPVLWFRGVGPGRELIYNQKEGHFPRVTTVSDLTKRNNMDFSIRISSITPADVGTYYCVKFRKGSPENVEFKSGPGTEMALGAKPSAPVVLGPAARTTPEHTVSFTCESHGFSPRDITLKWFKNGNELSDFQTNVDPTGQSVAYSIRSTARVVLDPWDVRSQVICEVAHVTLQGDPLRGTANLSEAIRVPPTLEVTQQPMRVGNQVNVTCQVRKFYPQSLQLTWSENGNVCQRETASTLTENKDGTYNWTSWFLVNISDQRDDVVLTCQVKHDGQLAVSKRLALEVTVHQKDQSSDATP

Binder | binding result [1] | binding result [2] | binding result [3]
HEFLB (an analogue of BI 765063) (antibody, V domains shown, human IgG4; also called analogue of BI 765063 (OSE-172)) VH: EVQLVQSGAEVKKPGESLRISCKASGYSFTSYWVHWVRQMPGKGLEWMGNIDPSDSDTHYSPSFQGHVTLSVDKSISTAYLQLSSLKASDTAMYYCVRGGTGTLAYFAYWGQGTLVTVSS VL: DVVMTQSPLSLPVTLGQPASISCRSSQSLVHSYGNTYLYWFQQRPGQSPRLLIYRVSNRFSGVPDRFSGSGSGTDFTLKISRVEAEDVGVYYCFQGTHVPYTFGGGTKVEIK | no binding | no binding (tested: 30 nM (highest analyte concentration)) | no binding (tested: 30 nM (highest analyte concentration))
hu1H9 (an analogue of FSI-189, Gilead) (antibody, V domains shown, human IgG4) VH: QVQLVQSGAEVKKPGASVKVSCKASGYTFTSYWITWVKQAPGQGLEWIGDIYPGSGSTNHIEKFKSKATLTVDTSISTAYMELSRLRSDDTAVYYCATGYGSSYGYFDYWGQGTLVTVSS VL: DIQMTQSPSSLSASVGDRVTITCRASENIYSYLAWYQQKPGKAPKLLIYTAKTLAEGVPSRFSGSGSGTDFTLTISSLQPEDFATYYCQHQYGPPFTFGQGTKLEIK |  |  | binds
